Reference: patent publication US20220409668A1, “GENETICALLY MODIFIED HUMAN STEM CELL EXPRESSING A MUTANT HUMAN CYTOCHROME P450 2B6 PROTEIN AND USE THEREOF IN THE TREATMENT OF CANCER” (ASSISTANCE PUBLIQUE-HOPITAUX DE PARIS, priority 2019, published 2022)

Test: affinity of cytochrome P450 2B6 protein for cyclophosphamide (CPA) and Vmax
Type: biochemical, human
From the text: In a particularly advantageous embodiment, said variants and fragments have an affinity for CPA that is identical, substantially identical or greater than that of the mutant human cytochrome P450 2B6 protein (CYP2B6*) of SEQ ID No. 1. Methods making it possible to assay said activity and said affinity are well known to a person skilled in the art and are particularly described in Nguyen et al., Mol. Pharmacol., 2008, 73: 1,122-1,133.

B1: CYP2B6*: mutant human cytochrome P450 2B6 protein of SEQ ID No. 1 with 114V, 199M and 477W residues (protein, listed as Homo sapiens)
chain: MELSVLLFLALLTGLLLLLVQRHPNTHDRLPPGPRPLPLLGNLLQMDRRGLLKSFLRFREKYGDVFTVHLGPRPVVMLCGVEAIREALVDKAEAFSGRGKIAMVDPFFRGYGVVFANGNRWKVLRRFSVTTMRDFGMGKRSVEERIQEEAQCLIEELRKSKGALMDPTFLFQSITANIICSIVFGKRFHYQDQEFLKMMNLFYQTFSLISSVFGQLFELFSGFLKYFPGAHRQVYKNLQEINAYIGHSVEKHRETLDPSAPKDLIDTYLLHMEKEKSNAHSEFSHQNLNLNTLSLFFAGTETTSTTLRYGFLLMLKYPHVAERVYREIEQVIGPHRPPELHDRAKMPYTEAVIYEIQRFSDLLPMGVPHIVTQHTSFRGYIIPKDTEVFLILSTALHDPHYFEKPDAFNPDHFLDANGALKKTEAFIPFSLGKRICLGEGIARAELFLFFTTILQNFSMASPVAPEDIDLTPQECGWGKIPPTYQIRFLPR
Which results are given for B1?
affinity for CPA relative to the wild-type protein (CYP2B6 WT) (fold greater than CYP2B6 WT, substitutions I114V, L199M, V477W): more than 8 times; Vmax compared with wild-type protein (versus CYP2B6 WT, substrate CPA): same Vmax
